The values that follow come from patent US20050176083A1.

Experiment [1] has as its target APC mutant QGNSEDY (ALL) (human) (UniProt P04070). The experiment is described as follows: cell-based or functional assay.
In experiment [2] the target is wild-type human activated protein C (recombinant, thrombin-activated) (human) (UniProt P04070). In words: cell-based or functional assay.

On to “human protein S (from UniProt P07225 42-676)”, for which, in experiment [1], the APTT clotting time in protein S deficient human plasma with APC, in absence of protein S amounted to 160 s and the APTT clotting time in protein S deficient human plasma with APC, protein S added came out at 350 s. Moreover, in experiment [2], the APTT clotting time in protein S deficient human plasma with APC, highest protein S concentration is 150 s and the APTT clotting time in protein S deficient human plasma with APC, in absence of protein S was determined as 100 s.
